From article PMC4248446

Target: receptor for advanced glycation end products (RAGE) (human (endogenous in HPAEC)) (UniProt Q15109)
Chain of UniProt Q15109 (Q15109 23-404): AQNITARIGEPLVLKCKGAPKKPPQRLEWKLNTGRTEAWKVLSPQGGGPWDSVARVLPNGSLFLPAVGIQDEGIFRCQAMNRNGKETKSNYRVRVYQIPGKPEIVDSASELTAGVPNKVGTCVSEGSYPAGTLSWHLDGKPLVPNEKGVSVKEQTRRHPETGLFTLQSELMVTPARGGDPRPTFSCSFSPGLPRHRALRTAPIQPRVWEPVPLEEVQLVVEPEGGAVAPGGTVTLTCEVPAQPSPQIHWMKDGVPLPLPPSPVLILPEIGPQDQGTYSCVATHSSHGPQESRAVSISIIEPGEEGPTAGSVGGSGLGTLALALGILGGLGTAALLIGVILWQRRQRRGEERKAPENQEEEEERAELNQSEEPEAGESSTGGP

ET-1 release from HPAECs induced by HMGB1 (40 ng/ml), ELISA of the culture supernatant, with anti-RAGE antibody (ab3611; Abcam; 1 μg/ml) co-treated: 349 pg/mL
Substance: recombinant high mobility group box-1 (HMGB1) (from UniProt P09429 1-215) (ligand)
